In paper PMC9352680, “A comprehensive thermodynamic model for RNA binding by the Saccharomyces cerevisiae Pumilio protein PUF4”:

T1: PUF4 RNA-binding domain (Saccharomyces cerevisiae, UniProt P25339 537-888)
T1 sequence: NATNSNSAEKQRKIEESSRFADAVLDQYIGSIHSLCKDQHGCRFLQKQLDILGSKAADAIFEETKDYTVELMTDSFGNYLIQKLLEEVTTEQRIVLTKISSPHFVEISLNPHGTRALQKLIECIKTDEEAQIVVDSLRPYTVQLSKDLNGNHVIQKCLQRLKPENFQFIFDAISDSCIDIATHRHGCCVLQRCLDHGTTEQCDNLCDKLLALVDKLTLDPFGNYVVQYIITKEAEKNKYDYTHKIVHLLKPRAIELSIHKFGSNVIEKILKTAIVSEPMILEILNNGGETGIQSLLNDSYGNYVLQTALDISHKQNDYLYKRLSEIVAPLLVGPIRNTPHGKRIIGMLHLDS


Molecular target: T1, PUF4 RNA-binding domain
Test: Mg; RNA-MaP; 20 mM Na-HEPES pH 7.4, 30 mM KOAc, 0.75 mM MgCl2, 0.1% Tween-20, 5% glycerol, 0.1 mg/mL BSA, 2 mM DTT; 25 C; 0.0125-409.6 nM protein
Details: tags: N-His6-TEV cleaved; C-SNAP kept, Cy3B-labelled; label: tethered on chip by stalled RNA polymerase

| Binder | Kd [nM] |
| --- | --- |
| UCUCUUCUUAUAUUAUUAAAUCUCUU (ssRNA) [Id_ii_S1_P5E.3_K5.2_C5.2_H5.2_A5.1_F5.1_T5.2_[T11A]] | 730 |
| UCUCUUUAACACUUAUUACCUCUCUU (ssRNA) [Id_ii_S1_P5E.4_K5.3_C5.2_[C-2T]_[T-1A]_H5.3_A5.1_F5.1_T5.2_[T11C]_[A12C]] | > 2300 |
| UCUCUUUAACACUUAUUAUCUCUCUU (ssRNA) [Id_ii_S1_P5E.4_K5.3_C5.2_[C-2T]_[T-1A]_H5.3_A5.1_F5.1_T5.2_[A12C]] | > 2300 |
| UCUCUUUUACACUUAUUAAAUCUCUU (ssRNA) [Id_ii_S1_P5E.4_K5.3_C5.2_[C-2T]_H5.3_A5.1_F5.1_T5.2_[T11A]] | > 2300 |
| UCUCUUUGUAUUACUCUCUCUU (ssRNA) [Ib_S1_P5E.1_K5.1_C5.1_H5.1_A5.1_F5.1_[T8C]_[A10C]_T5.1] | 133 |
| UCUCUUCUUAUAUUAUUAAUUCUCUU (ssRNA) [Id_ii_S1_P5E.3_K5.2_C5.2_H5.2_A5.1_F5.1_T5.2_[T11A]_[A12T]] | 460 |
| UCUCUUCUUAUAUUAUUAUUUCUCUU (ssRNA) [Id_ii_S1_P5E.3_K5.2_C5.2_H5.2_A5.1_F5.1_T5.2_[A12T]] | 228 |
| UCUCUUUCACACUUAUUACAUCUCUU (ssRNA) [Id_ii_S1_P5E.4_K5.3_C5.2_[C-2T]_[T-1C]_H5.3_A5.1_F5.1_T5.2_[T11C]] | > 2300 |
| UCUCUUUCACACUUAUUAUCUCUCUU (ssRNA) [Id_ii_S1_P5E.4_K5.3_C5.2_[C-2T]_[T-1C]_H5.3_A5.1_F5.1_T5.2_[A12C]] | > 2300 |
| UCUCUUGUACACUUAUUACCUCUCUU (ssRNA) [Id_ii_S1_P5E.4_K5.3_C5.2_[C-2G]_H5.3_A5.1_F5.1_T5.2_[T11C]_[A12C]] | 3.22 |
| UCUCUUUAACACUUAUUAUAUCUCUU (ssRNA) [Id_ii_S1_P5E.4_K5.3_C5.2_[C-2T]_[T-1A]_H5.3_A5.1_F5.1_T5.2] | > 2300 |
| UCUCUUUGUAUUAUGCUCUCUU (ssRNA) [Ib_S1_P5E.1_K5.1_C5.1_H5.1_A5.1_F5.1_[T9G]_[A10C]_T5.1] | 15.2 |
| UCUCUUUUACACUUAUUAUCUCUCUU (ssRNA) [Id_ii_S1_P5E.4_K5.3_C5.2_[C-2T]_H5.3_A5.1_F5.1_T5.2_[A12C]] | > 2300 |
| UCUCUUUAACACUUAUUAAUUCUCUU (ssRNA) [Id_ii_S1_P5E.4_K5.3_C5.2_[C-2T]_[T-1A]_H5.3_A5.1_F5.1_T5.2_[T11A]_[A12T]] | > 2300 |
| UCUCUUGCACACUUAUUAUUUCUCUU (ssRNA) [Id_ii_S1_P5E.4_K5.3_C5.2_[C-2G]_[T-1C]_H5.3_A5.1_F5.1_T5.2_[A12T]] | 1420 |
| UCUCUUGUACACUUAUUAAUUCUCUU (ssRNA) [Id_ii_S1_P5E.4_K5.3_C5.2_[C-2G]_H5.3_A5.1_F5.1_T5.2_[T11A]_[A12T]] | 4.75 |

| Binder | Kd [nM] |
| --- | --- |
| UCUCUUGCACACUUAUUAAUUCUCUU (ssRNA) [Id_ii_S1_P5E.4_K5.3_C5.2_[C-2G]_[T-1C]_H5.3_A5.1_F5.1_T5.2_[T11A]_[A12T]] | 1370 |
| UCUCUUUGUAUUAUGGUCUCUU (ssRNA) [Ib_S1_P5E.1_K5.1_C5.1_H5.1_A5.1_F5.1_[T9G]_[A10G]_T5.1] | 7.8 |
| UCUCUUGUACACUUAUUAUCUCUCUU (ssRNA) [Id_ii_S1_P5E.4_K5.3_C5.2_[C-2G]_H5.3_A5.1_F5.1_T5.2_[A12C]] | 2.94 |
| UCUCUUUAACACUUAUUAAAUCUCUU (ssRNA) [Id_ii_S1_P5E.4_K5.3_C5.2_[C-2T]_[T-1A]_H5.3_A5.1_F5.1_T5.2_[T11A]] | > 2300 |
| UCUCUUUCACACUUAUUAGCUCUCUU (ssRNA) [Id_ii_S1_P5E.4_K5.3_C5.2_[C-2T]_[T-1C]_H5.3_A5.1_F5.1_T5.2_[T11G]_[A12C]] | > 2300 |
| UCUCUUAGACACUUAUUACUUCUCUU (ssRNA) [Id_ii_S1_P5E.4_K5.3_C5.2_[C-2A]_[T-1G]_H5.3_A5.1_F5.1_T5.2_[T11C]_[A12T]] | > 2300 |
| UCUCUUGGACACUUAUUAACUCUCUU (ssRNA) [Id_ii_S1_P5E.4_K5.3_C5.2_[C-2G]_[T-1G]_H5.3_A5.1_F5.1_T5.2_[T11A]_[A12C]] | > 2300 |
| UCUCUUUAACACUUAUUACAUCUCUU (ssRNA) [Id_ii_S1_P5E.4_K5.3_C5.2_[C-2T]_[T-1A]_H5.3_A5.1_F5.1_T5.2_[T11C]] | > 2300 |
| UCUCUUUUACACUUAUUACCUCUCUU (ssRNA) [Id_ii_S1_P5E.4_K5.3_C5.2_[C-2T]_H5.3_A5.1_F5.1_T5.2_[T11C]_[A12C]] | > 2300 |
| UCUCUUUGUAUUAUCAUCUCUU (ssRNA) [Ia_S1_P5E.1_K5.1_C5.1_H5.1_A5.1_F5.1_[T9C]_T5.1] | 21.9 |
| UCUCUUUCACACUUAUUAACUCUCUU (ssRNA) [Id_ii_S1_P5E.4_K5.3_C5.2_[C-2T]_[T-1C]_H5.3_A5.1_F5.1_T5.2_[T11A]_[A12C]] | > 2300 |
| UCUCUUUUACACUUAUUAUUUCUCUU (ssRNA) [Id_ii_S1_P5E.4_K5.3_C5.2_[C-2T]_H5.3_A5.1_F5.1_T5.2_[A12T]] | > 2300 |
| UCUCUUUCACACUUAUUACGUCUCUU (ssRNA) [Id_ii_S1_P5E.4_K5.3_C5.2_[C-2T]_[T-1C]_H5.3_A5.1_F5.1_T5.2_[T11C]_[A12G]] | > 2300 |
| UCUCUUUUACACUUAUUAACUCUCUU (ssRNA) [Id_ii_S1_P5E.4_K5.3_C5.2_[C-2T]_H5.3_A5.1_F5.1_T5.2_[T11A]_[A12C]] | > 2300 |
| UCUCUUUCACACUUAUUAUGUCUCUU (ssRNA) [Id_ii_S1_P5E.4_K5.3_C5.2_[C-2T]_[T-1C]_H5.3_A5.1_F5.1_T5.2_[A12G]] | > 2300 |
